Reference: publication PMC3720256

Assays:
Assay in all cases: EMSA
[1] = molecular target: Ryp1(N) (Histoplasma capsulatum G217B, UniProt A9QXX8 1-267); details: protein: ivt; tags: C-terminal TEV site-6xHis; label: 5'-IRDye800 (Fwd strand); blunt
[2] = molecular target: Ryp1 (Histoplasma capsulatum G217B, UniProt A9QXX8 1-487); details: protein: ivt; tags: C-terminal TEV site-6xHis; label: 5'-IRDye800 (Fwd strand); blunt
[3] = molecular target: T1, Ryp2;Ryp3 (Histoplasma capsulatum …, UniProt B2CQK0;B2CQK1 1-404;1-373, |); details: protein: ivt;ivt; tags: C-terminal TEV site-6xHis;C-terminal TEV site-6xHis; copies: 1;1; label: 5'-IRDye800 (Fwd strand); blunt
T1 sequence 1: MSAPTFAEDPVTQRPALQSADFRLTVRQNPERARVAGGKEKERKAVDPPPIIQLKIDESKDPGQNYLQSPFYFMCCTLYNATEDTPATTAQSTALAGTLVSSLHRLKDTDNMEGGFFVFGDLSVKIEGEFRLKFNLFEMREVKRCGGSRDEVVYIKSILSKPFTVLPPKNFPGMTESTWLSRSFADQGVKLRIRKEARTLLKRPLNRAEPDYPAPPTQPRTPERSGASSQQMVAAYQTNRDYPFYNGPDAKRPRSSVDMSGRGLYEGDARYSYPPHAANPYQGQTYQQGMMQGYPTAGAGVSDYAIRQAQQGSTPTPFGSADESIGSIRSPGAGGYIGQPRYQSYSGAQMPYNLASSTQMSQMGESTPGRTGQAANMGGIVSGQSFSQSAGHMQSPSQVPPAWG
T1 sequence 2: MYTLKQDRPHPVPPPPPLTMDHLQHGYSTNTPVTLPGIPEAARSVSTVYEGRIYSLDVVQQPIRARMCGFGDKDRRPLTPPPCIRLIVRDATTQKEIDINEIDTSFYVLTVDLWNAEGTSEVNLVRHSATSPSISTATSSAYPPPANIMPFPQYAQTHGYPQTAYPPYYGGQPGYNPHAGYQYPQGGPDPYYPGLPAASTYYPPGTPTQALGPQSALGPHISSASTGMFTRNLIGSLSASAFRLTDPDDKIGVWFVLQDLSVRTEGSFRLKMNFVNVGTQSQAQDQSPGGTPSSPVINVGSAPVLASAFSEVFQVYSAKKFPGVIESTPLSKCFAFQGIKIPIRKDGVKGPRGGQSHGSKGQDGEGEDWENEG

B1: CBP1 promoter Motif A probe (dsDNA)
DNA 1: TAATGGTTCCAGATTGAGTTTCGTTTAAAGTTCACAACTCAATTCGGCAGCTCCGCTGCA
DNA 2: TGCAGCGGAGCTGCCGAATTGAGTTGTGAACTTTAAACGAAACTCAATCTGGAACCATTA
- binding result [1]: binds
- binding result [2]: binds

B2: CBP1 promoter Motif B probe (dsDNA)
DNA 1: ATCAGGCGTCCGATCAGGTGATTGCTTTTAACCTTGGGATCCAGAGATCTCTCTATCTTT
DNA 2: AAAGATAGAGAGATCTCTGGATCCCAAGGTTAAAAGCAATCACCTGATCGGACGCCTGAT
- binding result [3]: binds
